Data: patent US8822171

Target: recombinant human tau, largest isoform (2N4R)

B1: casein kinase 1 (CK1) (protein)
chain: MELRVGNRYRLGRKIGSGSFGDIYLGTDIAAGEEVAIKLECVKTKHPQLHIESKIYKMMQGGVGIPTIRWCGAEGDYNVMVMELLGPSLEDLFNFCSRKFSLKTVLLLADQMISRIEYIHSKNFIHRDVKPDNFLMGLGKKGNLVYIIDFGLAKKYRDARTHQHIPYRENKNLTGTARYASINTHLGIEQSRRDDLESLGYVLMYFNLGSLPWQGLKAATKRQKYERISEKKMSTPIEVLCKGYPSEFATYLNFCRSLRFDDKPDYSYLRQLFRNLFHRQGFSYDYVFDWNMLKFGASRAADDAERERRDREERLRH
New sites identified in recombinant tau (phosphorylated residues, numbered on 441-residue human tau): (46/50), 113, 131, 149, 169, 184, 208, (210, 212), 214, 237, 238, 241, 258, 262, 263, 285, 289, 305, 341, 352, 356, 361, 373, 386, (412/413/414/416, 2 sites), 416, 433, 435 | in vitro phosphorylation of recombinant tau, sites identified by LC/MS/MS: CK1 found 28 new sites making a total of 30 sites in all.
